# Patent US20130136743A1 (LABORATOIRE FRANCAIS DU FRACTIONNEMENT ET DES …, published 2013)
# Substitutions are numbered along the chain they refer to. Names and notes keep the numbering of the source.
# T1: AMHRII receptor expressed on cells (cov434-AMHRII, Asc 1, META 2815) (human, UniProt Q16671 18-573)
# T1 sequence (looked up): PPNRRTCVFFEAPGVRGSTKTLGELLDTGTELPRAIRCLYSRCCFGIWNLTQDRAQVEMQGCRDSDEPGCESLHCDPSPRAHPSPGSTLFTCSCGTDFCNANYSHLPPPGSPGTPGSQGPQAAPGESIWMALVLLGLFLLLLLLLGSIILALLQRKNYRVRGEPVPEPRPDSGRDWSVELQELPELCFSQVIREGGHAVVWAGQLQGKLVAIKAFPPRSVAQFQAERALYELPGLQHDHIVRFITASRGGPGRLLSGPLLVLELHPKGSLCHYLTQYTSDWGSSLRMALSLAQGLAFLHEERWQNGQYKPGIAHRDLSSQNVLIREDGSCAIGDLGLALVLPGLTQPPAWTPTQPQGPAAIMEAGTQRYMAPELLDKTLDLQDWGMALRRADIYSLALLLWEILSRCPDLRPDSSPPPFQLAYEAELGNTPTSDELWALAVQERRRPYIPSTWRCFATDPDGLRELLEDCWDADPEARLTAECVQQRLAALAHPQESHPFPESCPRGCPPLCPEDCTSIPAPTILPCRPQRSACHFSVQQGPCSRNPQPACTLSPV
# T2: Epitope peptide GGGGNLTQDRAQVEMQGSR
# T2 peptide: GGGGNLTQDRAQVEMQGSR
# B1: mVH-VL, murine antibody mLFB112 expressed as scFv on phage (scFv, part only; not given: scFv linker, part only)
# scFv, part: QVQLQQSGPELVKPGASVRMSCKASGYTFTSYHIHWVKQRPGQGLEWIGWIYPGDDSTKYNEKFKGKTTLTADKSSSTAYMLLSSLTSEDSAIYFCTRGDRFAYWGQGTLVTVSAQIVLTQSPAIMSASLGEGITLTCSASSSVRYIHWYQQKSGTSPKLLIYSTSNLASGVPSRFSGSGSGTFHSLTISSVEAEDAADYYCLQWSSYPWTFGGGTKLEIK
# B2: huVH-VL, humanized antibody huLFB112 expressed as scFv on phage (scFv, part only; not given: scFv linker and phage partner, V domains shown, not shown: another chain or arm of the molecule; large carriers; small tags and cut ends)
# VH: QVQLVQSGAEVKKPGASVKVSCKASGYTFTSYHIHWVRQAPGQRLEWMGWIYPGDDSTKYSQKFQGRVTITRDTSASTAYMELSSLRSEDTAVYYCTRGDRFAYWGQGTLVTVSS
# VL: DIQMTQSPSTLSASVGDRVTITCRASSSVRYIAWYQQKPGKAPKLLIYSTSSLESGVPSRFSGSGSGTEFTLTISSLQPDDFATYYCLQWSSYPWTFGGGTKVEIK
# B3: mutated humanized 12G4 antibody 3C-23K produced in YB2/0 (antibody, human IgG1, kappa, V domains shown)
# VH: B2 VH with Q3R
# VL: DIQMTQSPSTLSASVGDRVTITCRASSSVRYIAWYQQKPGKAPKLLTYPTSSLKSGVPSRFSGSGSGTEFTLTISSLQPDDFATYYCLQWSSYPWTFGGGTKVEIKR
# notes: Chains without leader; also called 3C_23K YB2/0; 3C-23K-YB2/0
# B4: mutated humanized 12G4 antibody 6B-78 produced in YB2/0 (antibody, human IgG1, kappa, V domains shown)
# VH: B2 VH
# VL: B3 VL with T47I, P49S
# notes: Chains without leader; Mutation VL-E184K; also called 6B_78 YB2/0; R901 6B78
# B5: mutated humanized 12G4 antibody 3C-23 produced in YB2/0 (antibody, human IgG1, kappa, V domains shown)
# VH: B2 VH with Q3R
# VL: B3 VL with K54E
# notes: Chains without leader; Mutations VH-Q3R, VL-I177T/S179P; also called 3C_23 YB2/0; R901 3C23
# B6: murine 12G4 monoclonal antibody (antibody, V domains shown)
# VH: QVQLQQSGPELVKPGASVRMSCKASGYTFTSYHIHWVKQRPGQGLEWIGWIYPGDDSTKYNEKFKGKTTLTADKSSSTAYMLLSSLTSEDSAIYFCTRGDRFAYWGQGTLVTVSA
# VL: QIVLTQSPAIMSASLGEGITLTCSASSSVRYIHWYQQKSGTSPKLLIYSTSNLASGVPSRFSGSGSGTFHSLTISSVEAEDAADYYCLQWSSYPWTFGGGTKLEIK
# notes: also called mLFB112; original murine 12G4 antibody
# Key:
# [1] = target: T3, AMHR-II/Fc fusion protein (human, UniProt Q16671 18-149, limits assumed); assay: direct phage ELISA, target coated at 500 ng/well; 3.00E+09 phages per well as printed (second row)
# T3 construct: also called AMHR-II recombinant receptor expressed in the form of fusion protein with a region Fc; recombinant target; not shown: Fc region
# [2] = target: T3, AMHR-II/Fc fusion protein; assay: direct phage ELISA, ratio of specific binding; 3.00E+09 phages per well as printed (second row)
# [3] = target: T3, AMHR-II/Fc fusion protein; assay: direct phage ELISA, target coated at 500 ng/well; 3.00E+10 phages per well as printed (second row)
# [4] = target: T3, AMHR-II/Fc fusion protein; assay: direct phage ELISA, ratio of specific binding; 3.00E+10 phages per well as printed
# [5] = target: T3, AMHR-II/Fc fusion protein; assay: direct phage ELISA, target coated at 500 ng/well; 3.00E+09 phages per well as printed (third row)
# [6] = target: T3, AMHR-II/Fc fusion protein; assay: direct phage ELISA, ratio of specific binding; 3.00E+09 phages per well as printed (third row)
# [7] = target: T3, AMHR-II/Fc fusion protein; assay: direct phage ELISA, ratio of specific binding; 3.00E+10 phages per well as printed (second row)
# [8] = target: T3, AMHR-II/Fc fusion protein; assay: direct phage ELISA, target coated at 500 ng/well; 3.00E+10 phages per well as printed
# [9] = target: T3, AMHR-II/Fc fusion protein; assay: direct phage ELISA, ratio of specific binding; 3.00E+09 phages per well as printed
# [10] = target: T3, AMHR-II/Fc fusion protein; assay: direct phage ELISA, target coated at 500 ng/well; 3.00E+09 phages per well as printed
# [11] = target: T3, AMHR-II/Fc fusion protein; assay: SPR, BIAcore X100; AMHR-II/Fc immobilised on CM5 chip, antibody injected; 25 C
# Procedure: (§1) The affinity of the antibodies for their antigen, AMHR-II, is determined by the SPR (Surface Plasmon Resonance) technique on BIACore X100 (BIACore, GE Healthcare). The AMHR-II recombinant receptor, expressed in the form of fusion protein with a region Fc, is immobilized by covalent coupling between its amine functions and the carboxyl groups of dextran activated in succinimide esters, present on the surface of the type CM5 sensor chip. The COOH groups of the sensor chip are activated for 7 minutes with EDC/NHS mixture (0.1 M of N-hydroxysuccinimide and 0.1 M of 3-(N,N-dimethylamino)propyl-N-ethylcarbodiimide) at a flow of 10 μl/min then the AMHR-II/Fc fusion protein, diluted to 5 μg/ml in 10 mM sodium acetate buffer, pH 4.0, is injected at […] on track 2 of the sensor chip so as to reach 300 RU. The ester groups that have not reacted with the amines of the fusion protein are deactivated by injection of a solution of ethanolamine-HCl 1M, pH 8.5 for 7 min at a flow of 10 μl:min. Track 1, serving as negative control, was activated and deactivated like track 2.
# (§2) All the measurements are carried out at 25° C. The antibodies to be analysed are diluted in HBS-EP running buffer (BIACore, GE Healthcare) at concentrations from 6.25 to 3333 nM and injected on the sensor chip for 2 min at a flow of 30 μl/min. The dissociation step is monitored for 10 min and then the surface is regenerated by injection of 10 mM glycine buffer, pH 1.5 for 30 s at 10 μl/min.
# (§3) The sensorgrams obtained are analysed using the 1:2 kinetic model of the BIAevaluation 3.1 software.
# [12] = target: T1, AMHRII receptor expressed on cells …; assay: cell-based or functional assay
# [13] = target: T1, AMHRII receptor expressed on cells …; assay: saturation binding of 125I-labelled antibody to cov434-AMHRII cells, Scatchard analysis
# Procedure: Briefly, KD was determined by the saturation method, by adding increasing doses of radiolabelled antibody to a constant number of cov434-AMHRII cells. […] For each antibody, fourfold dilutions were carried out in PBS/BSA 0.5% from the solutions of labelled and unlabelled antibody (84.4 μg/ml). The nonspecific fixation was evaluated by incubating the cells in the presence of a 100 times molar excess of unlabelled antibody.
# After incubation, the samples were frozen in liquid nitrogen and then analysed in a gamma counter. The specific fixation was determined by subtracting the fixation obtained in the presence of an excess of unlabelled antibody.
# [14] = target: T3, AMHR-II/Fc fusion protein; assay: SPR, BIAcore X100; ratio against the chimeric 12G4
# Procedure: as §1, §2, §3
# [15] = target: T1, AMHRII receptor expressed on cells …; assay: cell-based or functional assay; remark: listed apart in the source
# [16] = target: T1, AMHRII receptor expressed on cells …; assay: cell-based or functional assay; remark: listed apart in the source
# [17] = target: T2, Epitope peptide GGGGNLTQDRAQVEMQGSR; assay: method not stated; Example 2, heading names cov434-AMHR-II cells and the epitope peptide
Binder,"OD 450 nm, +covering [1] [OD]","OD 450 nm, Diff (specific binding) [1] [OD]","OD 450 nm, +covering [3] [OD]","OD 450 nm, Diff (specific binding) [3] [OD]",Kd [11] [nM],koff [11] [s⁻¹],kon [11] [M⁻¹ s⁻¹],"EC50 (ng/ml), ADCC on ASC1 cells [12] [ng/mL]","Emax (% of lysis), ADCC on ASC1 cells [12]",Kd [13] [nM],KD chimeric/KD mutated [14],"50% relative, ADCC on the COV434-AMHRII line (chimeric antibody = 1) [15]","% of lysis of ASC1 cells (ADCC with NK cells, LDH release) at 0.001 ng/ml antibody [16] [%]","% of lysis of ASC1 cells (ADCC with NK cells, LDH release) at 0.005 ng/ml antibody [16] [%]","% of lysis of ASC1 cells (ADCC with NK cells, LDH release) at 0.05 ng/ml antibody [16] [%]","% of lysis of ASC1 cells (ADCC with NK cells, LDH release) at 0.5 ng/ml antibody [16] [%]","% of lysis of ASC1 cells (ADCC with NK cells, LDH release) at 5 ng/ml antibody [16] [%]","% of lysis of ASC1 cells (ADCC with NK cells, LDH release) at 50 ng/ml antibody [16] [%]","% of lysis of ASC1 cells (ADCC with NK cells, LDH release) at 500 ng/ml antibody [16] [%]","% of lysis of ASC1 cells (ADCC with NK cells, LDH release) at 5000 ng/ml antibody [16] [%]",also measured
B1,0.946,0.887,2.19,2.11,,,,,,,,,,,,,,,,,"Ratio mVH-VL/huVH-VL [2]: 5.2; Ratio mVH-VL/huVH-VL [4]: 2.4; OD 450 nm, +covering [5]: 0.495 OD; OD 450 nm, Diff (specific binding) [5]: 0.446 OD; Ratio mVH-VL/huVH-VL [6]: 5.2; Ratio mVH-VL/huVH-VL [7]: 3.6; OD 450 nm, +covering [8]: 2.81 OD; OD 450 nm, Diff (specific binding) [8]: 2.65 OD; Ratio mVH-VL/huVH-VL [9]: 4.7; OD 450 nm, +covering [10]: 1.57 OD; OD 450 nm, Diff (specific binding) [10]: 1.51 OD"
B2,0.226,0.17,0.689,0.593,,,,,,,,,,,,,,,,,"OD 450 nm, +covering [5]: 0.135 OD; OD 450 nm, Diff (specific binding) [5]: 0.086 OD; OD 450 nm, +covering [8]: 1.25 OD; OD 450 nm, Diff (specific binding) [8]: 1.1 OD; OD 450 nm, +covering [10]: 0.395 OD; OD 450 nm, Diff (specific binding) [10]: 0.323 OD"
B3,,,,,21,0.00086,40000,1.7,79 % of lysis,5.3,10,0.84,0,8,10,26,51,67,79,75,"fold affinity against the original murine 12G4 antibody [13]: ~3 fold; EC50, ADCC on Asc 1 cells [15]: ~2.24 ng/mL; EC50, ADCC on META 2815 cells [15]: 30.5 ng/mL; fold cytotoxic activity on Asc 1 cells against 3C-23K-CHO [15]: ~40 fold; fold cytotoxic activity on META 2815 cells against 3C-23K-CHO [15]: ~146 fold"
B4,,,,,82,0.0013,16000,5.38,51.9 % of lysis,6.68,2.6,36.9,0,14,5,3,28,42,48,53,
B5,,,,,92,0.0033,36000,6.3,65.5 % of lysis,7.33,2.3,6.41,0,8,9,13,35,46,52,63,
B6,,,,,,,,,,15.4,,,,,,,,,,,Kd [17]: ~100 nM; koff [17]: 0.00147 s⁻¹
